System: MS2 coat protein
Assay: apparent KD of MS2 coat protein; higher = weaker reporter binding
Settings: Eterna round: R107
Procedure, shortened: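 Each design's apparent KD comes from the median of binding-curve fits to its normalised clusters. Those clusters carried RNA switches transcribed on-chip from Illumina sequencing clusters. SNAP-549-labelled MS2 coat protein was titrated onto them in twofold steps (0.7 or 1.5 nM to 3 µM; per step 0.8–1.5 h down to 10–20 min). Conditions were 100 mM Tris-HCl pH 7.5, 80 mM KCl, 4 mM MgCl2, without or with constant ligand.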

[1] = input ligand: theophylline 20 uM
[2] = input ligand: theophylline 2 mM
[3] = input ligand: tryptophan 2.4 mM

AAUUGGCACUGAAGGAGCGAGUUUACCUAAAUAACAUGAGGAUCACCCAUGUAAAAUGGGACUCAGGUAGGUCGCAGUUGUCAAA [Same State Arginine B GF 22]
apparent KD of MS2 coat protein (input ligand: arginine 13.2 mM): 48 nM
apparent KD of MS2 coat protein (input ligand: none): 57.6 nM
apparent KD of MS2 coat protein [1]: 76.4 nM
apparent KD of MS2 coat protein [2]: 63.7 nM
apparent KD of MS2 coat protein [3]: 61.5 nM

CCUCACGAAAUCGAUGAAAGCAUGUGGCACCGAGGACCGGUACGGCCGCCACUCGCAUCCACACAUGAGGAUCACCCAUGUAAGA [theeternabot_exclusion_MS2_Trp_A_9]
apparent KD of MS2 coat protein (input ligand: arginine 13.2 mM): 27.3 nM
apparent KD of MS2 coat protein [1]: 37.6 nM
apparent KD of MS2 coat protein [2]: 59.6 nM

AAUUCCUCACAUGAGGAUCACCCAUGUGAAGGAGCGCGGAAUAACGCAGGUAGGUCGCACAUGGAAACCGCUGCGAAAGCAGCAA [MAT - Exclusion Arginine A - Mod of Eli - D26]
apparent KD of MS2 coat protein (input ligand: arginine 13.2 mM): 13.1 nM
apparent KD of MS2 coat protein (input ligand: none): 18.7 nM
apparent KD of MS2 coat protein [1]: 24 nM
apparent KD of MS2 coat protein [2]: 18.1 nM
apparent KD of MS2 coat protein [3]: 16.3 nM

CGCCACUCGAGUGAUCCUCACGAGUGGCUACGAGGACCGGUACGGCCGCCACUCGAAUUAACAUGAGGAUCACCCAUGUAAUCCA [Brourdmod09]
apparent KD of MS2 coat protein (input ligand: arginine 13.2 mM): 21.1 nM
apparent KD of MS2 coat protein [1]: 217 nM
apparent KD of MS2 coat protein [2]: 400 nM

ACAUGAAGAACAGCGGUGGGCGCGCUCGAUACCAGUAUUUUAACCUACCCUUGGCAGCGACAUGAGGAUCACCCAUGUGAGAUGA [XTheo A #7]
apparent KD of MS2 coat protein (input ligand: arginine 13.2 mM): 18.5 nM
apparent KD of MS2 coat protein [1]: 26.8 nM
apparent KD of MS2 coat protein [3]: 16.6 nM

ACGUAAUGCAGAAGGAGCGUCGACCUCUUACAUGAGGAUCACCCAUGUUGCAUGGUUGUACGACAGGUAGGUCGCUGAAGUACGA [#05 Exclusion - Arginine B]
apparent KD of MS2 coat protein (input ligand: arginine 13.2 mM): 34.5 nM
apparent KD of MS2 coat protein (input ligand: none): 38.2 nM
apparent KD of MS2 coat protein [1]: 89.5 nM
apparent KD of MS2 coat protein [2]: 68.1 nM
apparent KD of MS2 coat protein [3]: 65.4 nM

AAUUAAACAUCGGCCGCCACUUACUCAUGAGGUAACAACAUGAGGAUCACCCAUGUUUGAGGAUCAAGGACCGGGAUGUAAUUUU [AstrosSSTryB#3]
apparent KD of MS2 coat protein (input ligand: arginine 13.2 mM): 28 nM
apparent KD of MS2 coat protein [1]: 40.3 nM
apparent KD of MS2 coat protein [2]: 35.1 nM

AAGCGGGCGACGGCCGCCACUUGCCUGUAAUUAGAGAAGGCACAUGAGGAUCACCCAUGUCCCGCAAGGACCGGGUUGCCUCACU [Ditiraorce]
apparent KD of MS2 coat protein (input ligand: arginine 13.2 mM): 93.6 nM
apparent KD of MS2 coat protein [1]: 484 nM
apparent KD of MS2 coat protein [2]: 580 nM

ACAUGAGGAUCACCCAUGUAUUACCGGGAAGGAGCGGCCGGAAGGCCAGGUAGGUCGCUCGGCGUCGUGCUGUAAAGCACGACGA [#1 Same State - Arginine A Attempt #27 (HarryS)]
apparent KD of MS2 coat protein (input ligand: arginine 13.2 mM): 8.95 nM
apparent KD of MS2 coat protein (input ligand: none): 14 nM
apparent KD of MS2 coat protein [1]: 18.4 nM
apparent KD of MS2 coat protein [2]: 12.2 nM
apparent KD of MS2 coat protein [3]: 11.6 nM

UGAUGGUACGGAAGGAGCGUGUAAGAACAAGAACAUGAGGAUCACCCAUGUAUUAAUUUAACACAGGUAGGUCGCCGAGUUAUUG [11.G]
apparent KD of MS2 coat protein (input ligand: arginine 13.2 mM): 17.8 nM
apparent KD of MS2 coat protein (input ligand: none): 17.3 nM
apparent KD of MS2 coat protein [1]: 26.7 nM
apparent KD of MS2 coat protein [2]: 23.2 nM
apparent KD of MS2 coat protein [3]: 16.5 nM

AAACAUUGCUGCGAUACCAGACAUGAGGAUCACCCAUGUACCAAGAAAACGUACAUAAAUGUCCCUUGGCAGCGCAGCAAUGAAA [MAT - Exclusion Theophlline B - Mod of Eli - D27]
apparent KD of MS2 coat protein (input ligand: arginine 13.2 mM): 216 nM
apparent KD of MS2 coat protein [1]: 514 nM
apparent KD of MS2 coat protein [3]: 651 nM

AAACAUGAGGAUCACCCAUGUAAUUCAGAAGGAGCGUCAUUAUUGACAGGUAGGUCGCUGAUAAAAUUUCUAUACAUCAUGUAUA [JR_SSArginiA_Sub013]
apparent KD of MS2 coat protein (input ligand: arginine 13.2 mM): 11.9 nM
apparent KD of MS2 coat protein (input ligand: none): 12.4 nM
apparent KD of MS2 coat protein [1]: 15.7 nM
apparent KD of MS2 coat protein [2]: 13 nM
apparent KD of MS2 coat protein [3]: 13.3 nM

AGCUGGGAUCCUCAGCGUCAAAGACGCAGUCGAGGACCGGUACGGCCGCCACUCGACACGAGGAUCACCCGUGUCAUUCCCAGCA [TrypAX 1 #SwitchBubble #AlternativeMS2 #MS2Late #CuTurnoff]
apparent KD of MS2 coat protein (input ligand: arginine 13.2 mM): 34.5 nM
apparent KD of MS2 coat protein [1]: 387 nM
apparent KD of MS2 coat protein [2]: 584 nM
apparent KD of MS2 coat protein [3]: 1460 nM

— the supplement of paper PMC9170038
